# Biological target: fbx31_human FBXO31 (UniProt Q5XUX0)
# Chain of UniProt Q5XUX0 (Q5XUX0 whole entry): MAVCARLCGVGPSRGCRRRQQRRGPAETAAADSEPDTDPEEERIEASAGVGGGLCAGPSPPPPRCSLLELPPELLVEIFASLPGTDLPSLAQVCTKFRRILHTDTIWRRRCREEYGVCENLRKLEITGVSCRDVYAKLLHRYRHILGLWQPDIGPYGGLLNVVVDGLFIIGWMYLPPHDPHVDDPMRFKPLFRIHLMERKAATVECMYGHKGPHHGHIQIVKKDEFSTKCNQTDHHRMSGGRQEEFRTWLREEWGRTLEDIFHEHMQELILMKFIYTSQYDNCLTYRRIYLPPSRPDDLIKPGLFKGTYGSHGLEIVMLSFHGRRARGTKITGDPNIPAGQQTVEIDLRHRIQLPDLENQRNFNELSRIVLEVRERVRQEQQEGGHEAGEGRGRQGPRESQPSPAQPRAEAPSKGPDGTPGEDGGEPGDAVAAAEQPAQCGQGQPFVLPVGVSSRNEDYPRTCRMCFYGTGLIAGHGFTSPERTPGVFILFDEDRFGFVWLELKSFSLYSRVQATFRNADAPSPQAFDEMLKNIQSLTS
substance,measurement,value
"Serine-protein kinase ATM (Homo sapiens), Q13315 D2870A;N2875K",effect of a mutation on the interaction,disrupting interaction

# Source: IntAct's records for PubMed 19412162
